From patent US20250002594A1 (SHANGHAI EPIMAB BIOTHERAPEUTICS, published 2025)
Numbering of substitutions follows the chain as printed.

T1: human CD122 on HEK293 cells (human, UniProt P14784 27-551)
T1 construct: whole, on cells; also called cell surface CD122
T1 sequence (looked up): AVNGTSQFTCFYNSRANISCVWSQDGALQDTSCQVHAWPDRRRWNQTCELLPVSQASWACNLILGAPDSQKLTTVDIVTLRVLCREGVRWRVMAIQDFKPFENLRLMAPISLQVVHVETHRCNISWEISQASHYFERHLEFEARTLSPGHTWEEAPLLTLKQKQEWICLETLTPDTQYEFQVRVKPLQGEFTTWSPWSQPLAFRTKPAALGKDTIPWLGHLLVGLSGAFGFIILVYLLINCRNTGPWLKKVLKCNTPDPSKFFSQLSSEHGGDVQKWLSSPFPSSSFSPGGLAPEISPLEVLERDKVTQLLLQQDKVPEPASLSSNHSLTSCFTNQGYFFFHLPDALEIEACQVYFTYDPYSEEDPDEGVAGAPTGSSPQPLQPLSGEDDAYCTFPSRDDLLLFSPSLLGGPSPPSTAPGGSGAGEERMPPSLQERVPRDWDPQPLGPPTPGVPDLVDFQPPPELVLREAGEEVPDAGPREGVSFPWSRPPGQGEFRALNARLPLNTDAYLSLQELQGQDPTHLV

T2: CD122/CD132 complex on HEK-Blue IL-2 cells (UniProt P14784 27-551; P31785 23-369, limits assumed)
T2 sequence (looked up) 1: T1 sequence (looked up)
T2 sequence (looked up) 2: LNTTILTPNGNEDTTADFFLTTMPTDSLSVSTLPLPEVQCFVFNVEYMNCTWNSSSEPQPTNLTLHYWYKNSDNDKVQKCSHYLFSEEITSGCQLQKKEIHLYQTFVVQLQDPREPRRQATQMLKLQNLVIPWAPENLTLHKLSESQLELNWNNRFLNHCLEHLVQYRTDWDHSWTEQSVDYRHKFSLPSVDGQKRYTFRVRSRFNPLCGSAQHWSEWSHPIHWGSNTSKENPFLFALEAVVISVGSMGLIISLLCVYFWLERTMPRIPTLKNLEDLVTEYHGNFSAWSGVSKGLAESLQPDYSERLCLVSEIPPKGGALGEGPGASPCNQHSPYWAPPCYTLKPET

T3: human CD132 on HEK293 cells (human, UniProt P31785 23-369)
T3 construct: whole, on cells; also called cell surface CD132
T3 sequence (looked up): T2 sequence (looked up) 2

T4: recombinant human CD122 (human, UniProt P14784 27-239, limits assumed)
T4 construct: also called IL-2Rβ
T4 sequence (looked up): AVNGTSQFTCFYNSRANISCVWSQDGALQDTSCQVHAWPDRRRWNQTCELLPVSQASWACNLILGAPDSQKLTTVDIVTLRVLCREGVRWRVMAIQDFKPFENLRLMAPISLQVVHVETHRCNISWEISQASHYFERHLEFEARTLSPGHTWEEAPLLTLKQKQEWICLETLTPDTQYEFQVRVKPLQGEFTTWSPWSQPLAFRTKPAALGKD

T5: recombinant human CD132 (human, UniProt P31785 23-262, limits assumed)
T5 construct: also called IL-2Rγ
T5 sequence (looked up): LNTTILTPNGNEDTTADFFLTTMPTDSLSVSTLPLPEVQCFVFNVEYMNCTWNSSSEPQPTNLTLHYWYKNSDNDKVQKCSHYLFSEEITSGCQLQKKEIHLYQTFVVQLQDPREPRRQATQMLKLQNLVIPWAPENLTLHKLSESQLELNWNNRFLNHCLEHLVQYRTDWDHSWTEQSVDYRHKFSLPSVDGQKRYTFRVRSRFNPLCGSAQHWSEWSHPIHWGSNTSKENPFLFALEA

B1: Duo2019-86b (bispecific antibody, human IgG1, kappa, L234A L235A)
heavy 1: EVQLQQPGSELVRPGASVKLSCKASGYTFTSYWMHWMKQRPGQGLEWIGHIYLGGGATNYAEKFRSKATLTADTSSSTAYMQLSSLTSEDSAVYYCTRSQPYYYGMDSWGQGTSVTVSSASTKGPSVFPLAPSSKSTSGGTAALGCLVKDYFPEPVTVSWNSGALTSGVHTFPAVLQSSGLYSLSSVVTVPSSSLGTQTYICNVNHKPSNTKVDKKVEPKSCDKTHTCPPCPAPEAAGGPSVFLFPPKPKDTLMISRTPEVTCVVVDVSHEDPEVKFNWYVDGVEVHNAKTKPREEQYNSTYRVVSVLTVLHQDWLNGKEYKCKVSNKALPAPIEKTISKAKGQPREPQVYTLPPSREEMTKNQVSLTCLVKGFYPSDIAVEWESNGQPENNYKTTPPVLDSDGSFLLYSKLTVDKSRWQQGNVFSCSVMHEALHNHYTQKSLSLSPGK
light 1: DIQMTQTPSSLSASLGDRVTISCRASQDISNYLNWYQQKPDGTVKLLIYYKSRLHSGVPSRFSGSGSGTEYSLTINNLEQEDFATYFCHQGHTIPFTFGSGTKLEIKRTVAAPSVFIFPPSDEQLKSGTASVVCLLNNFYPREAKVQWKVDNALQSGNSQESVTEQDSKDSTYSLSSTLTLSKADYEKHKVYACEVTHQGLSSPVTKSFNRGEC
heavy 2: QVQLQQSGPELVKPGASVKMSCKASGYRFSDYVISWVKQRSGQGLEWIGEIYPGDGNTYYNEMFKGRATLTADKSPNTAYMKLSSLTSEDSALYFCARGSYTYDNYAMDFWGQGTSVTVSSASTKGPSVFPLAPSSKSTSGGTAALGCLVKDYFPEPVTVSWNSGALTSGVHTFPAVLQSSGLYSLSSVVTVPSSSLGTQTYICNVNHKPSNTKVDKKVEPKSCDKTHTCPPCPAPEAAGGPSVFLFPPKPKDTLMISRTPEVTCVVVDVSHEDPEVKFNWYVDGVEVHNAKTKPREEQYNSTYRVVSVLTVLHQDWLNGKEYKCKVSNKALPAPIEKTISKAKGQPREPQVYTLPPSREEMTKNQVSLTCLVKGFYPSDIAVEWESNGQPENNYKTTPPVLDSDGSFFLYSRLTVDKSRWQQGNVFSCSVMHEALHNHYTQKSLSLSPGK
light 2: DVLMTQTPLSLPVSLGDQASISCRSSQNIVHSNGNTYLEWYLQKPGQSPKLLIYKVSNRFSGVPDRFSGSGSGTDFTLKISRVEAEDLGLYYCFQGSHIPWTFGGGTKLEIKRTVAAPSVFIFPPSDEQLKSGTASVVCLLNNFYPREAKVQWKVDNALQSGNSQESVTEQDSKDSTYSLSSTLTLSKADYEKHKVYACEVTHQGLSSPVTKSFNRGEC
notes: 1+1 asymmetric IgG1 made by Fab-arm exchange; printed both as Duo2019-86 and Duo2019-86b
B2: huFIT2019-86b-49 (bispecific antibody, human IgG1, kappa, L234A L235A)
chain 1: not shown
chain 2: EVQLVQSGAEVKKPGASVKVSCKASGYTFTDYVISWVRQATGQGLEWMGEIYPGDGNTYYNEMFKGRVTMTRDTSISTAYMELSSLRSEDTAVYYCARGSYTYDNYAMDFWGQGTTVTVSSASTKGPSVFPLAPSSKSTSGGTAALGCLVKDYFPEPVTVSWNSGALTSGVHTFPAVLQSSGLYSLSSVVTVPSSSLGTQTYICNVNHKPSNTKVDKKVEPKSC
chain 3: not shown
B3: huFIT2019-86b-32 (bispecific antibody, human IgG1, kappa, L234A L235A)
chain 1: not shown
chain 2: B2 chain 2
chain 3: not shown
notes: also called huFIT9-86b-32
B4: huFIT2019-86b-45 (bispecific antibody, human IgG1, kappa, L234A L235A)
chain 1: not shown
chain 2: B2 chain 2 with G56A, N57Q
chain 3: not shown
B5: huFIT2019-86b-47 (bispecific antibody, human IgG1, kappa, L234A L235A)
chain 1: not shown
chain 2: B2 chain 2 with D55E
chain 3: not shown
B6: huFIT2019-86b-50 (bispecific antibody, human IgG1, kappa, L234A L235A)
chain 1: not shown
chain 2: B2 chain 2
chain 3: not shown
B7: huFIT2019-86b-46 (bispecific antibody, human IgG1, kappa, L234A L235A)
chain 1: not shown
chain 2: B2 chain 2 with G56A
chain 3: not shown
B8: huFIT2019-86b-35 (bispecific antibody, human IgG1, kappa, L234A L235A)
chain 1: not shown
chain 2: B2 chain 2
chain 3: not shown
B9: huFIT2019-86b-48 (bispecific antibody, human IgG1, kappa, L234A L235A)
chain 1: not shown
chain 2: B2 chain 2
chain 3: not shown
B10: huFIT2019-86b-28 (bispecific antibody, human IgG1, kappa, L234A L235A)
chain 1: not shown
chain 2: EVQLVQSGAEVKKPGASVKVSCKASGYRFSDYVISWVKQATGQGLEWIGEIYPGDAQTYYNEMFKGRATLTADKSISTAYMELSSLRSEDTAVYFCARGSYTYDNYAMDFWGQGTTVTVSSASTKGPSVFPLAPSSKSTSGGTAALGCLVKDYFPEPVTVSWNSGALTSGVHTFPAVLQSSGLYSLSSVVTVPSSSLGTQTYICNVNHKPSNTKVDKKVEPKSC
chain 3: not shown
B11: huFIT2019-86b-34 (bispecific antibody, human IgG1, kappa, L234A L235A)
chain 1: not shown
chain 2: B2 chain 2
chain 3: not shown
B12: huFIT2019-86b-36 (bispecific antibody, human IgG1, kappa, L234A L235A)
chain 1: not shown
chain 2: B2 chain 2
chain 3: not shown
B13: huFIT2019-86b-33 (bispecific antibody, human IgG1, kappa, L234A L235A)
chain 1: not shown
chain 2: B2 chain 2
chain 3: not shown
B14: huFIT2019-86b-29 (bispecific antibody, human IgG1, kappa, L234A L235A)
chain 1: not shown
chain 2: B2 chain 2 with G56A, N57Q
chain 3: not shown
B15: huFIT2019-86b-31 (bispecific antibody, human IgG1, kappa, L234A L235A)
chain 1: not shown
chain 2: B2 chain 2 with G56A, N57Q
chain 3: not shown
B16: huFIT2019-86b-30 (bispecific antibody, human IgG1, kappa, L234A L235A)
chain 1: not shown
chain 2: B2 chain 2 with G56A, N57Q
chain 3: not shown

target: T1, human CD122 on HEK293 cells; assay: Flow cytometry (MFI) on HEK293 cells overexpressing human CD122; the table gives no unit, the axis is Fab conc.(nM)
Description: (§1) Briefly, a 96-well plate was seeded with 3×10⁵ cells each well, centrifuged at 400 g for 5 minutes and supernatants discarded, then added 100 μl of antibody (5× serial dilutions, 0.0064 to 100 nM) each well and gently mixed. After 60 minutes of incubation at 4° C., plates were washed several times to remove excess antibodies. Secondary fluorochrome-conjugated goat anti-human IgG antibody (Jackson Immunoresearch, Cat No. 109-606-098) was then added and incubated with cells at 4° C. for 20 minutes. After another round of centrifugation and washing, cells were resuspended in assay buffer (1X PBS containing 2% FBS) for reading on a flow-cytometer. Median Fluorescence Intensity (MFI) readouts were plotted against antibody concentration and analyzed with GraphPad Prism 6.0 software.

Row | EC50 [nM] | Binder
1 | 1.63 | B1

target: T2, CD122/CD132 complex on HEK-Blue IL-2 …; assay: cell-based or functional assay

Row | EC50 from SEAP reporter gene assay [nM] | Binder
2 | 0.216 | B2
3 | 0.163 | B3
4 | 0.106 | B4
5 | 0.121 | B5
6 | 0.286 | B6
7 | 0.119 | B7
8 | 0.163 | B8
9 | 0.168 | B9

target: T3, human CD132 on HEK293 cells; assay: Flow cytometry (MFI) on HEK293 cells overexpressing human CD132; the table gives no unit, the axis is Fab conc.(nM)
Description: as §1

Row | EC50 [nM] | Binder
10 | 11.4 | B1

target: T4, recombinant human CD122; assay: GCI (WAVEsystem)
Description: (§2) Binding affinity and kinetics constants of humanized CD122/CD132 FIT-Ig were determined using a label-free biosensor on WAVEsystem (Creoptix AG, Switzerland) by grating-coupled interferometry (GCI). Briefly, a PCP WAVEchip (Creoptix AG) was pre-immobilized with goat anti-human IgG Fc antibody to a density of 3830 pg/mm² by amine coupling, and used to capture humanized CD122/CD132 FIT-Ig generated from Example 3.2.1 to a density of ˜90 pg/mm², then exposed to recombinant human/cyno CD122 or CD132 serially diluted (3× dilutions from 200 nM to […] for human CD122, human CD132 and cyno CD132, respectively; and from 1000 nM to 1.37 nM for cyno CD122) in 1X HBS-EP+ buffer (Cytiva, Cat No. BR100669) by injection at 60 μL/min for 250s to assess association, followed by 1200s dissociation. After each round of association and dissociation, WAVEchip surface was regenerated by subject to pH 1.5 Glycine-HCl buffer injection at 60 μL/min for 120s. Sensorgrams were recorded at 25° C., the data were analyzed on WAVEcontrol (Creoptix AG) and double referenced by subtracting the signals from blank injections and the reference channel. A Langmuir 1:1 model was used for data fitting.

Row | binding result | Binder
11 | binds | B10
12 | binds | B11
13 | binds | B12
14 | binds | B13
15 | binds | B14
16 | binds | B15
17 | binds | B16

target: T5, recombinant human CD132; assay: GCI (WAVEsystem)
Description: as §2

Row | binding result | Binder
18 | binds | B10
19 | binds | B2
20 | binds | B3
21 | binds | B11
22 | binds | B4
23 | binds | B12
24 | binds | B13
25 | binds | B14
26 | binds | B15
27 | binds | B5
28 | binds | B6
29 | binds | B7
30 | binds | B8
31 | binds | B9
32 | binds | B16
